Test results as given in US20080004209.

Columns and labels:
[1] = system: alkylated and reduced resistin
alkylated and reduced resistin, sequence (Q9HD89 19-108): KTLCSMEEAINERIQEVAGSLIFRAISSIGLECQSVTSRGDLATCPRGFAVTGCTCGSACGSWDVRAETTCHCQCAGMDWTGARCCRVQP

trypsin, sequence (P00761 9-231): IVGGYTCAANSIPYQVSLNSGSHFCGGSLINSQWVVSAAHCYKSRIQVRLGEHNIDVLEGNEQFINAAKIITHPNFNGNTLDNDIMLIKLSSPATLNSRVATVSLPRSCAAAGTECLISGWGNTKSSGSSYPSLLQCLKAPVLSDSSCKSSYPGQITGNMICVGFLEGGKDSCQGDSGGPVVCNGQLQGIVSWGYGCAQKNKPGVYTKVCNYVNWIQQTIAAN
native resistin, sequence (Q9HD89 19-108): as the sequence (Q9HD89 19-108) above

HIV-1 protease was tested, and the “cleavage of resistin in vitro (24 hr digestion, SDS-PAGE)” value (from here on “cleavage of resistin in vitro”) [1] was “incubation with HIV-1 protease, cathepsin D and cathepsin E resulted in the appearance of a ca. 7 kDa resistin cleavage product”.

cathepsin D was tested, and the “cleavage of resistin in vitro” value [1] was “incubation with HIV-1 protease, cathepsin D and cathepsin E resulted in the appearance of a ca. 7 kDa resistin cleavage product”.

cathepsin E was tested, and the “cleavage of resistin in vitro” value [1] was “incubation with HIV-1 protease, cathepsin D and cathepsin E resulted in the appearance of a ca. 7 kDa resistin cleavage product”.

With trypsin the “cleavage of resistin in vitro” value [1] was “resistin was completely degraded by the non-specific protease, trypsin” and the “proteolytic cleavage (preliminary protease digestion experiments, data not shown)” value (native resistin) was “native resistin was refractory to proteolytic cleavage by trypsin, suggestive of a highly folded state (data not shown)”.
